Test results: the MegaScale stability set (Tsuboyama et al. 2023)

B1: HEEH_KT_rd6_0790 (parent)
chain: SEEEEEEWRRAKERGEEIIILGILWKPNDEEAERRIKEALRRV

Variants of: B1
Experiment: folding stability dG (cDNA display proteolysis); higher = more stable
Settings: PBS, room temperature

Folding stability dG [kcal/mol], by site and new letter:
L21: A 1.84; I 1.47; H 1.88; R 2.07; S 1.24; Q 1.84
D29: S 1.42; A 1.25; R 1.19; Q 1.34; T 0.862; L 1.01; H 1.28; P 1.09; I 0.872
E7: K 2.9; C 2.59; D 1.99; N 2.54; R 2.97; M 2.62; L 2.65; W 2.86; H 2.14; P 1.32
A32: L 1.41; W 1.02; G 1.2; T 1.55; H 0.931; R 1.12; K 0.96; I 1.39
P27: Y 1.22; F 1.41; T 1.16; I 1.27; K 1.12; R 0.846; N 1.22
L40: N 0.57; F 1.78; R 1.2; P 0.583; G 0.586; W 1.45; Q 1
R10: I 1.8; L 1.82; N 1.69; Y 1.69; C 2.25; D 1.2; E 1.33; F 1.56
E33: P 0.529; G 1.49; S 1.68; W 1.99; N 1.61; D 2.01; F 1.66; L 1.7
R14: A 2.04; T 1.79; S 1.92; N 1.97; V 1.76; L 2.05; Q 1.83
E6: D 2.09; T 1.58; S 1.63; A 1.99; C 2.44; K 1.72; M 1.87; W 2.09
N28: S 1.62; W 2.05; K 1.45; T 1.38; H 1.97; I 0.872; Y 1.9
I20: T 0.843; H 0.981; P 0.587; F 2.27; Y 1.5; A 0.825
A11: L 2.14; P 1.03; N 1.28; I 2.52; F 1.89; G 1.22; S 1.65; T 1.26; V 1.75
E13: W 1.78; Y 1.78; D 1.93; H 1.68; F 1.77; T 1.77; G 1.49
K12: T 1.59; G 1.07; A 1.59; W 2.43; N 1.3; Y 2.2
E3: L 2.28; K 2.46; R 2.4; Q 2.33; T 2.36; H 2.33; W 2.5; P 2.29; D 2.35; F 2.37
G22: M 2.3; F 2.59; D 1.29; A 1.37; V 2.1; R 0.712; P 0.681; W 1.93
I23: F 1.26; P 0.9; Q 0.969; N 0.85; V 1.55; K 1.08; T 1.16
E31: T 1.79; R 1.38; W 1.5; N 1.69; L 1.69; A 1.79; M 1.54; V 1.9
I18: G 0.605; W 1.67; V 2.15; F 2.1; D 0.812
I36: R 0.952; F 1.5; V 2.01; H 0.809; G 1.03; L 1.49; P 0.142
E16: P 1.15; W 2.03; G 1.61; N 1.71; V 2.15; H 1.93; Q 2.05; I 2.21; R 1.66
